Assays:
PSMA Fab (006 PSMA Fab) [1] = target: T1, PSMA Fab (006 PSMA Fab); assay: phage ELISA; biotinylated PSMA Fab on neutravidin plate, clonal phage supernatant, anti-M13 HRP detection; blocking buffer alone
T1 construct: also called Anti-PSMA Fab; anti-PSMA Fab
Procedure: (§1) Clonal phage were harvested as crude supernatants and screened via standard ELISAs. […] Prior to the addition of clonal phage. wells were incubated with blocking buffer and PSMA antigen or blocking buffer alone. Without washing or aspirating, clonal phage supernatants were then added to the wells and incubated for a short time. Wells were then washed followed by detection of bound phage using a horse radish conjugated anti-M13 antibody.

PSMA Fab (006 PSMA Fab) [2] = target: T1, PSMA Fab (006 PSMA Fab); assay: phage ELISA; biotinylated PSMA Fab on neutravidin plate pre-incubated with PSMA antigen as competitor, clonal phage supernatant, anti-M13 HRP detection
Procedure: as §1

[3] = target: T2, Anti-PSMA Fab (006 PSMA Fab) (biotinylated (site not stated)); assay: clonal phage ELISA, biotinylated PSMA Fab on neutravidin plates, anti-M13 HRP detection
T2 construct: Biotinylated PSMA Fab captured on neutravidin coated plates

[4] = target: T2, Anti-PSMA Fab (006 PSMA Fab); assay: clonal phage ELISA on PSMA Fab pre-incubated with PSMA antigen as competitor, anti-M13 HRP detection
Procedure: as §1

PSMA Fab [5] = target: T3, PSMA Fab; assay: clonal phage ELISA on captured PSMA Fab pre-incubated with PSMA antigen (competitor)
T3 construct: Biotinylated and captured on neutravidin plates in the phage ELISA; also called Anti-PSMA Fab; 006 PSMA Fab
Procedure: as §1

PSMA Fab [6] = target: T3, PSMA Fab; assay: clonal phage ELISA on biotinylated PSMA Fab captured on neutravidin, anti-M13 HRP detection;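 also: crude clonal phage supernatants added to wells pretreated with PSMA antigen in blocking buffer or with blocking buffer only, then briefly incubated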
Procedure: as §1

PSMA Fab (006 PSMA Fab) [7] = target: T4, PSMA Fab (006 PSMA Fab); assay: clonal phage ELISA; biotinylated PSMA Fab on neutravidin plate, blocking buffer alone; anti-M13 HRP detection;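 also: crude clonal phage supernatants added without washing to wells pretreated with blocking buffer with or without PSMA antigen, short incubation, then washed before detecting bound phage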
T4 construct: also called Anti-PSMA Fab; anti-PSMA Fab
Procedure: as §1

PSMA Fab (006 PSMA Fab) [8] = target: T4, PSMA Fab (006 PSMA Fab); assay: clonal phage ELISA; biotinylated PSMA Fab on neutravidin plate, wells pre-incubated with PSMA antigen (competitor); anti-M13 HRP detection
Procedure: as §1

| Binder | Phage binding ELISA signal, Anti-PSMA Fab with PSMA antigen (PSMA Fab [5]) | Phage binding ELISA signal, Anti-PSMA Fab (PSMA Fab [6]) | Phage binding ELISA signal, Anti-PSMA Fab (PSMA Fab (006 PSMA Fab) [7]) | Phage binding ELISA signal, Anti-PSMA Fab in presence of PSMA antigen (PSMA Fab (006 PSMA Fab) [8]) | further results |
| --- | --- | --- | --- | --- | --- |
| DMRLCRPVWMCEGF (Peptide-180 library clone, tested as clonal phage supernatant (peptide fused to pIII of the bacteriophage)) [Phage-3052] |  |  |  |  | Phage binding ELISA signal, Anti-PSMA Fab (PSMA Fab (006 PSMA Fab) [1]): 2.16; Phage binding ELISA signal, Anti-PSMA Fab in the presence of PSMA antigen (PSMA Fab (006 PSMA Fab) [2]): 0.13 |
| AELLCVPTWMCMGF [Phage-3014] |  |  |  |  | Phage binding ELISA signal, Anti-PSMA Fab [3]: 2.2; Phage binding ELISA signal, Anti-PSMA Fab with PSMA antigen [4]: 0.0679 |
| IEMMCRPSWMCDWL (Peptide-180 library clone, tested as clonal phage supernatant (peptide fused to pIII of the bacteriophage)) [Phage-3056] |  |  |  |  | Phage binding ELISA signal, Anti-PSMA Fab (PSMA Fab (006 PSMA Fab) [1]): 2.16; Phage binding ELISA signal, Anti-PSMA Fab in the presence of PSMA antigen (PSMA Fab (006 PSMA Fab) [2]): 0.0844 |
| YTMVCRPAWMCQGF (Peptide-180 library clone, tested as clonal phage supernatant (pIII display)) [Phage-3042] | 0.0964 | 2.17 |  |  |  |
| DMRRCEPIWMCVGF [Phage-3028] |  |  | 2.19 | 0.0954 |  |
| DWIRCLPAWMCTGF (Peptide-180 library clone, tested as clonal phage supernatant (peptide fused to pIII of the bacteriophage)) [Phage-3054] |  |  |  |  | Phage binding ELISA signal, Anti-PSMA Fab (PSMA Fab (006 PSMA Fab) [1]): 2.16; Phage binding ELISA signal, Anti-PSMA Fab in the presence of PSMA antigen (PSMA Fab (006 PSMA Fab) [2]): 0.0848 |
| STMMCVPPWMCMGF [Phage-3013] |  |  |  |  | Phage binding ELISA signal, Anti-PSMA Fab [3]: 2.21; Phage binding ELISA signal, Anti-PSMA Fab with PSMA antigen [4]: 0.0775 |
| TGPVCIPKWMCFGF (Peptide-180 library clone, tested as clonal phage supernatant (peptide fused to pIII of the bacteriophage)) [Phage-3057] |  |  |  |  | Phage binding ELISA signal, Anti-PSMA Fab (PSMA Fab (006 PSMA Fab) [1]): 2.15; Phage binding ELISA signal, Anti-PSMA Fab in the presence of PSMA antigen (PSMA Fab (006 PSMA Fab) [2]): 0.075 |
| PGHVCRPAWMCEGF (Peptide-180 library clone, tested as clonal phage supernatant (peptide fused to pIII of the bacteriophage)) [Phage-3048] |  |  |  |  | Phage binding ELISA signal, Anti-PSMA Fab (PSMA Fab (006 PSMA Fab) [1]): 2.17; Phage binding ELISA signal, Anti-PSMA Fab in the presence of PSMA antigen (PSMA Fab (006 PSMA Fab) [2]): 0.106 |
| IIPACVPPWMCSGF (Peptide-180 library clone, tested as clonal phage supernatant (pIII display)) [Phage-3036] | 0.212 | 2.18 |  |  |  |
| EGVVCIPEWMCKGF [Phage-3032] | 0.0637 | 2.18 |  |  |  |
| PAVRCEPSWMCQGF (Peptide-180 library clone, tested as clonal phage supernatant (pIII display)) [Phage-3037] | 0.161 | 2.18 |  |  |  |
| SLAVCKPSWMCAGF (Peptide-180 library clone, tested as clonal phage supernatant (pIII display)) [Phage-3044] | 0.0813 | 2.17 |  |  |  |
| EHLRCVPDWMCVGF (Peptide-180 library clone, tested as clonal phage supernatant (pIII display)) [Phage-3041] | 0.0886 | 2.17 |  |  |  |
| PGQVCIPEWMCTGF (Peptide-180 library clone, tested as clonal phage supernatant (peptide fused to pIII of the bacteriophage)) [Phage-3051] |  |  |  |  | Phage binding ELISA signal, Anti-PSMA Fab (PSMA Fab (006 PSMA Fab) [1]): 2.16; Phage binding ELISA signal, Anti-PSMA Fab in the presence of PSMA antigen (PSMA Fab (006 PSMA Fab) [2]): 0.0874 |
| ELYKCVPSWMCYGF (Peptide-180 library clone, tested as clonal phage supernatant (peptide fused to pIII of the bacteriophage)) [Phage-3050] |  |  |  |  | Phage binding ELISA signal, Anti-PSMA Fab (PSMA Fab (006 PSMA Fab) [1]): 2.16; Phage binding ELISA signal, Anti-PSMA Fab in the presence of PSMA antigen (PSMA Fab (006 PSMA Fab) [2]): 0.0696 |
| PTVYCKPEWMCTGF (Peptide-180 library clone, tested as clonal phage supernatant (pIII display)) [Phage-3043] | 0.0869 | 2.17 |  |  |  |
| IESRCVPEWMCYGF [Phage-3019] |  |  | 2.2 | 0.0726 |  |
| VQGVCVPSWMCTGF [Phage-3017] |  |  |  |  | Phage binding ELISA signal, Anti-PSMA Fab [3]: 2.2; Phage binding ELISA signal, Anti-PSMA Fab with PSMA antigen [4]: 0.0875 |
| VDVLCVPSWMCSWL [Phage-3026] |  |  | 2.19 | 0.0683 |  |
| EEKMCTPQWMCSGF [Phage-3020] |  |  | 2.2 | 0.0688 |  |
| LMPLCVPVWMCSGF (Peptide-180 library clone, tested as clonal phage supernatant (pIII display)) [Phage-3035] | 0.106 | 2.18 |  |  |  |
| DYPLCRPEWMCMGF (Peptide-180 library clone, tested as clonal phage supernatant (pIII display)) [Phage-3040] | 0.0813 | 2.18 |  |  |  |

| Binder | Phage binding ELISA signal, Anti-PSMA Fab with PSMA antigen (PSMA Fab [5]) | Phage binding ELISA signal, Anti-PSMA Fab (PSMA Fab [6]) | Phage binding ELISA signal, Anti-PSMA Fab (PSMA Fab (006 PSMA Fab) [7]) | Phage binding ELISA signal, Anti-PSMA Fab in presence of PSMA antigen (PSMA Fab (006 PSMA Fab) [8]) | further results |
| --- | --- | --- | --- | --- | --- |
| HEAMCRPTWMCHGF [Phage-3018] |  |  | 2.2 | 0.0722 |  |
| YAHICKPSWMCDGF (Peptide-180 library clone, tested as clonal phage supernatant (pIII display)) [Phage-3034] | 0.108 | 2.18 |  |  |  |
| VHNWCVPSWMCLGL (Peptide-180 library clone, tested as clonal phage supernatant (pIII display)) [Phage-3039] | 0.099 | 2.18 |  |  |  |
| VNVKCTPPWMCFGF (Peptide-180 library clone, tested as clonal phage supernatant (peptide fused to pIII of the bacteriophage)) [Phage-3049] |  |  |  |  | Phage binding ELISA signal, Anti-PSMA Fab (PSMA Fab (006 PSMA Fab) [1]): 2.16; Phage binding ELISA signal, Anti-PSMA Fab in the presence of PSMA antigen (PSMA Fab (006 PSMA Fab) [2]): 0.0865 |
| VIGWCVPQWMCSGF (Peptide-180 library clone, tested as clonal phage supernatant (pIII display)) [Phage-3045] | 0.113 | 2.17 |  |  |  |
| VGNMCVPEWMCVGF (Peptide-180 library clone, tested as clonal phage supernatant (peptide fused to pIII of the bacteriophage)) [Phage-3047] |  |  |  |  | Phage binding ELISA signal, Anti-PSMA Fab (PSMA Fab (006 PSMA Fab) [1]): 2.17; Phage binding ELISA signal, Anti-PSMA Fab in the presence of PSMA antigen (PSMA Fab (006 PSMA Fab) [2]): 0.0878 |
| WEILCKPEWMCSGF [Phage-3031] |  |  | 2.19 | 0.105 |  |
| VEPQCRPAWMCYGF (Peptide-180 library clone, tested as clonal phage supernatant (pIII display)) [Phage-3038] | 0.0668 | 2.18 |  |  |  |
| DHLMCKPSWMCKGF [Phage-3022] |  |  | 2.19 | 0.0924 |  |
| GGLRCEPMWMCHGF [Phage-3021] |  |  | 2.2 | 0.122 |  |
| ANVACIPPWMCLGF [Phage-3016] |  |  |  |  | Phage binding ELISA signal, Anti-PSMA Fab [3]: 2.2; Phage binding ELISA signal, Anti-PSMA Fab with PSMA antigen [4]: 0.109 |
| PVELCRPAWMCWGF (Peptide-180 library clone, tested as clonal phage supernatant (peptide fused to pIII of the bacteriophage)) [Phage-3055] |  |  |  |  | Phage binding ELISA signal, Anti-PSMA Fab (PSMA Fab (006 PSMA Fab) [1]): 2.16; Phage binding ELISA signal, Anti-PSMA Fab in the presence of PSMA antigen (PSMA Fab (006 PSMA Fab) [2]): 0.103 |
| DSIMCRPAWMCAGF [Phage-3029] |  |  | 2.19 | 0.0945 |  |
| PAEWCIPVWMCTGF [Phage-3015] |  |  |  |  | Phage binding ELISA signal, Anti-PSMA Fab [3]: 2.2; Phage binding ELISA signal, Anti-PSMA Fab with PSMA antigen [4]: 0.0732 |
| TVPKCVPNWMCDWL [Phage-3023] |  |  | 2.19 | 0.0864 |  |
| HHQLCKPLWMCEGF [Phage-3030] |  |  | 2.19 | 0.13 |  |
| VDKVCRPMWMCAGF (Peptide-180 library clone, tested as clonal phage supernatant (peptide fused to pIII of the bacteriophage)) [Phage-3046] |  |  |  |  | Phage binding ELISA signal, Anti-PSMA Fab (PSMA Fab (006 PSMA Fab) [1]): 2.17; Phage binding ELISA signal, Anti-PSMA Fab in the presence of PSMA antigen (PSMA Fab (006 PSMA Fab) [2]): 0.126 |
| VLPVCKPLWMCKGL [Phage-3027] |  |  | 2.19 | 0.234 |  |
| ELLMCRPAWMCDGF (Peptide-180 library clone, tested as clonal phage supernatant (pIII display)) [Phage-3033] | 0.087 | 2.18 |  |  |  |
| IERLCMPMWMCTGL [Phage-3024] |  |  | 2.19 | 0.0679 |  |
| VAPSCVPLWMCVGM (Peptide-180 library clone, tested as clonal phage supernatant (peptide fused to pIII of the bacteriophage)) [Phage-3053] |  |  |  |  | Phage binding ELISA signal, Anti-PSMA Fab (PSMA Fab (006 PSMA Fab) [1]): 2.16; Phage binding ELISA signal, Anti-PSMA Fab in the presence of PSMA antigen (PSMA Fab (006 PSMA Fab) [2]): 0.68 |
| PLVVCKPAWMCIGF [Phage-3025] |  |  | 2.19 | 0.0979 |  |

— patent US20260242478A1 (published 2026)
